The record followed here is article PMC3166142, “Direct Inhibition of TNF-α Promoter Activity by Fanconi Anemia Protein FANCD2”.

The target in this series is FANCD2 (Homo sapiens, UniProt Q9BXW9 1-1451). Put plainly: EMSA; 200 ng protein; 20 mM HEPES pH 7.6, 5 mM EDTA, 1 mM DTT, 150 mM KCl, 50 mM (NH4)2SO4, 1% Tween-20; 20 min, room temperature; native 4% PAGE. As to conditions: protein: recombinant; tags: His6 removed by thrombin; label: 32P; blunt (duplex implied; only one strand printed for EMSA). For orientation: Mobility shift assays separate free from complexed probe on a gel.
FANCD2, sequence (Q9BXW9 whole entry): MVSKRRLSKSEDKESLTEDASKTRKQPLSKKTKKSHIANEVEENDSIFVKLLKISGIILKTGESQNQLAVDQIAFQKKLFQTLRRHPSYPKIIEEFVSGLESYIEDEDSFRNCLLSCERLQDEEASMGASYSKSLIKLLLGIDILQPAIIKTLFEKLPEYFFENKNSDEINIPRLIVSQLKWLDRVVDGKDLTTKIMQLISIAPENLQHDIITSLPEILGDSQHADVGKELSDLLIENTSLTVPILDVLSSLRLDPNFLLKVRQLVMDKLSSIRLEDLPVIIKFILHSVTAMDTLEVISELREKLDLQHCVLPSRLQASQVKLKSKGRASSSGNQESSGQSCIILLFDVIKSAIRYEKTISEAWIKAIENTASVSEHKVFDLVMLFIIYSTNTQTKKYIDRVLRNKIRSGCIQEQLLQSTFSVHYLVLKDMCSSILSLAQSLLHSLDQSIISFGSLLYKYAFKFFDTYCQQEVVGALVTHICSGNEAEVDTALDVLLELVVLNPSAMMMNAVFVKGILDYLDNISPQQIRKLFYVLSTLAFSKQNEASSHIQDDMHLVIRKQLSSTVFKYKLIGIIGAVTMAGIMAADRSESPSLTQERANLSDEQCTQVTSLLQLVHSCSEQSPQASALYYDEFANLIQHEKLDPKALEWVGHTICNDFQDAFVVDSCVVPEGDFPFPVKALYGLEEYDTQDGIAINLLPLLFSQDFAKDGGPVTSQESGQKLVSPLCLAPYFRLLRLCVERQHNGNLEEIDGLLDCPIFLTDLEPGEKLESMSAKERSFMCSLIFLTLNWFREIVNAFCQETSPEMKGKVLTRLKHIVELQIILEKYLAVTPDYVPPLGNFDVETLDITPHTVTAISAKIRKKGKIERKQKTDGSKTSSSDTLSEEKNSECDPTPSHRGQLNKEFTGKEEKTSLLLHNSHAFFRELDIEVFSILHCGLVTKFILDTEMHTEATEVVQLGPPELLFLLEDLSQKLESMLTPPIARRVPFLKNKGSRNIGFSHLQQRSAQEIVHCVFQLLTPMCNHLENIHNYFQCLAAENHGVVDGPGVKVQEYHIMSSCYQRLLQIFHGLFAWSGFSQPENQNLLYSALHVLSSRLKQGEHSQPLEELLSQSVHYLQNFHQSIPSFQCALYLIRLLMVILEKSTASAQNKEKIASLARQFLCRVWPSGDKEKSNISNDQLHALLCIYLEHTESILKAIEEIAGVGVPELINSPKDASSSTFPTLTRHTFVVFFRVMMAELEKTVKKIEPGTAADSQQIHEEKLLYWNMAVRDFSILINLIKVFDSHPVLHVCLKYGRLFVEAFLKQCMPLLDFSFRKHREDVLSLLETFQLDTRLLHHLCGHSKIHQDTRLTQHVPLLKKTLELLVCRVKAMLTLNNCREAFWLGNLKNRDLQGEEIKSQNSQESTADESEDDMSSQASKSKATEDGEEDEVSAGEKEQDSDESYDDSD

B1: kB1 (dsDNA)
DNA 1: GAGTATGGGGACCCCCCCTTAA
DNA 2: TTAAGGGGGGGTCCCCATACTC
Take B1: the binding result is recorded as “binds”.
